Test results taken from the nanobody polyreactivity screen of Harvey et al. (2022).

Assay: yeast display, Sf9 membrane polyspecificity reagent, FACS + sequencing; frameworks hold sequencing errors
Procedure, shortened: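 Galactose-induced (36–48 hours) yeast carrying a synthetic nanobody display library were exposed to 10% biotinylated, detergent-solubilized Sf9 membrane reagent at 4 °C for 1 hour. FACS followed streptavidin microbead enrichment, using low and high (top ~1%) gates for expression (anti-HA) and reagent binding (streptavidin). Colony PCR, MiSeq 2 × 250 sequencing and CDR-length filtering followed. Labels for polyreactivity reflect the gate of origin.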
With “QDQHVESGGGLVQAGGSLRLSCAASGLTYRYNAMGWYRPAPGKERELVAAITSSGGSTYYADSVKGRFTISRDNAKNTVYLQMNSLKPEDTAVYYCAAATNTQESVPMYYWGQGTQVTVSS” the “polyreactivity (PSR sort gate)” value was “low polyreactivity”.
In the case of “QDQHVESGGGLVQAGGSLRLSCAASGSIFVTNAMGWCRQARGKERELVAAISVSGGSTYYADSVKGRFTISRDNAKHTVYLQMTSLKPEDTAVYYCNTVRSPPGHDSWGQGTQVTVSS”, the “polyreactivity (PSR sort gate)” value is reported as “low polyreactivity”.
With “QDQHVESGGGLVQAGGSLRLSCAASGSTIVDYVMGWYRQAPGKERELVAAIRRSDGRTYYADSVKGRFTISRDNAKNTVYLQMNSLKPEDTAVYYCADYAFYRYFFPDVLYDYWGQGTQVTVSS” the “polyreactivity (PSR sort gate)” value was “low polyreactivity”.
For “QDQHVESGGGLVQAGGSLRLSCAASGSTLYRYAMGWYRQAPGKERELVAAISSAGSTHYADSVKGRFTISRDNAKNTVYLQKNSLKPEDTAVYYCAKVVKKIEFDYWGQGTQVTVSS”, the “polyreactivity (PSR sort gate)” value was “high polyreactivity”.
For “QDQHVESGGGLVQAGGSLRLSCADSGIIFYPNAMGWYRQAPGKERELVAAITGSGGSTYYADSVKGRFTISRDNAKYTVYIQMNSLKPEDTAVYYCATRYHRSDPSRDYWGQGTQVTVSS”, the “polyreactivity (PSR sort gate)” value was “low polyreactivity”.
For “QDQHVESGGGLVQAGGSLRLSCDASGTTIYDYVMGWYRKAPGKERELVAAITRGGSTNYADSVKGRFTISRDNAKNTVYLQMNRLKPEDTAVYYCAARPCIWARAGYYWGQGTQVTVSS”, the “polyreactivity (PSR sort gate)” value was “high polyreactivity”.
In the case of “QDQHVESGGGLVQAGGSLRLSFAASGRIFRYYAMRWYRQAPGKDRELVAAIRWTAGSTYYADSVKVRFTISRDNAKNTVYLQMNSLKPEDPAVYYCATDVWKYGRYEYWVQGTQVTVSS”, the “polyreactivity (PSR sort gate)” value is reported as “low polyreactivity”.
For “QDQHVQSGVGIVQAVGSLRLSCAASGFTIPSYAMGWYRMAPGKEREFVAAISWNSGSTYYADSVKGRFTISRDNAKNTVYLQMNSLKPEDTAVYYCNAGAYVRRRYAPGYSFEYDSWGQGTQVTVSS”, the “polyreactivity (PSR sort gate)” value was “high polyreactivity”.
In the case of “QDQIVESCGGLVQAGGSLRLSCASSGNIIYPKAMGWYRQAPGKERDLVAAISTSRGSTYYADSVKGRFTISRDNAKNTVYLQMNSLKPEDTAVYYCNRRGPYGYKAWAIGTIGDLDYWGQGTQVTVSS”, the “polyreactivity (PSR sort gate)” value is reported as “low polyreactivity”.
With “QDQIVETGGGLVQAGCSLRLSCAASGSIYYNSMGWYRTAHAKETELVASISTGDSTDYADSVKGRFTISRDYAKYTVYLQMNSLKPEDTAVYYCKAVASQHDEFDYWGQGTQVTVSS” the “polyreactivity (PSR sort gate)” value was “low polyreactivity”.
For “QDQLEESGGGLVQEGGSLRLSCAASGFTFRGYAMGWYRQAPGKERELVAAISYSGGSTYYADSVKGRFTISRDNAMNSVYLQMNSLKPEDTAVYFCAARGGGKVRHRGTYDYWGQGTQVTVSS”, the “polyreactivity (PSR sort gate)” value was “high polyreactivity”.
In the case of “QDQLGESGGGLVQAGGSLRLSCAASGYIFGTYAMGWYRQATGKERELVAAISVGGGSTYYADSVKGRFTISRDNAKHTVYLQMNSLKPEDTAVYYCAAVQLYQKHQITYVAHEYWGQGTQVTVSS”, the “polyreactivity (PSR sort gate)” value is reported as “low polyreactivity”.
For “QDQLLESGGGVFQAGGSLRLSCAASGVIFGSYALGWYRPAPGKERELVADITQSGGRTRYADSVKGRFTISRDNAKNTVYLQMNSLKPEDSAVYYCNAQDVDSGDDYDYWGQGTQVTLSS”, the “polyreactivity (PSR sort gate)” value was “low polyreactivity”.
In the case of “QDQLQESGGGLVQAGGSLRLSCAASGSISYPRTMGWYRQAPGKEREFVAGIGVGGTTYYADSVKGRFTISRDNAKNTVYLQMKSLKPEDAAVYYCAVAAYYDKYYVYWGQGTQVTVSC”, the “polyreactivity (PSR sort gate)” value is reported as “low polyreactivity”.
In the case of “QDQLVDSGGGLDQAGGSLRLSCAASGGTFSSYDMGWYRQEPGKERELLADISWSGSSTDYADSVKGRYTISRDNAKNTVYLQLTSLKPEDTAVYYCAARPISFPYLGRNGYWGQGTQVTVSS”, the “polyreactivity (PSR sort gate)” value is reported as “low polyreactivity”.
In the case of “QDQLVDSGGGLVQAGGRLRLSCAASGSTYRTYAMVRYRQAPGKERELVAAINSGGSTYYADSVKGRFTISRDNAKNTVYLQMNSLKPEDTAVYSCAREDYVSYRLLYYLFDYWGQGTQVTVSS”, the “polyreactivity (PSR sort gate)” value is reported as “low polyreactivity”.
For “QDQLVDSGGGLVQAGGSLRLSCAASGFTFFRKAMGWYREAPGKERQLVAAITRAGSTYYADSVKGRFTISRDNAKNTVYLQMNSLKAEDTEVYYCFDLSNRYAVRYDYWGQGTQVTVSS”, the “polyreactivity (PSR sort gate)” value was “high polyreactivity”.
For “QDQLVDSGGGLVQAGGSLRLSCAASGSIFTPNAMGWYRQAPGKERELVAAISWSGGGTYYADSVKGRFTISRDNAKNTVYLQMNSLKPEDTAVYYCNAEYTKTGALVIPYTYYYAEDYWGQGTQVTVSS”, the “polyreactivity (PSR sort gate)” value was “low polyreactivity”.
For “QDQLVDSGGGLVQAGGSLRLSCAASGSIFWTYAMGWYRQAPGKERELVATITYSDGNTYYADSVKGRFTISRDNAMNTVYLQMNSLKPEDTAVYYCNADGIYASISGYRYDYWGQGTQVTVSS”, the “polyreactivity (PSR sort gate)” value was “low polyreactivity”.
With “QDQLVESAGGLVQAGGSLRLICAASASIFYWNAMGWYRQAPGKERELVAAITSGGSTYYADSVKGRFTISRDNAKNTVYLQMNSMKPEDTAVYYCAARPRGTYSRLGYWGQGTQVTVSS” the “polyreactivity (PSR sort gate)” value was “high polyreactivity”.
In the case of “QDQLVESCGGLVQAGGSLRLSCAASGGIINGYTMGWYRQAPGKETDLVAAITGSGGSTYYADSVKGRYTISRDNAKNTVYLQMNSLKPEETAVYYCARDYHARPNCPRSDDYDYWGQGTQVTVSS”, the “polyreactivity (PSR sort gate)” value is reported as “low polyreactivity”.
With “QDQLVESCGGLVQAGGSLRLSCASSGSTIYIYAMGWSRQAPVKERELVAAITWSGGSTYYADSVKGRFTISRDNAKNTVYLQMNSLNREDTAVYYFAAYLRYYRKEVGYSSMNYWGQGTQVTVSS” the “polyreactivity (PSR sort gate)” value was “high polyreactivity”.
In the case of “QDQLVESGAGLVQAGGSLRLSCAASGITFSANAMGWYRQAPGKERELVATITWSGGSTYYADSVKGRFTISRDNAKNTVYLQMNSLKPEDTAVYFCNARSYDEYPYYSYNYWGQGTQVTVSS”, the “polyreactivity (PSR sort gate)” value is reported as “low polyreactivity”.
In the case of “QDQLVESGAGLVQAGGSLRLSCAASGRIFPGYAMGWYRQAPGKERELVAGITWRTARTYYADSVKGRFTISRDNAKNTVYLQMNSLKPEDTAVYYCAAKYARYGRHVIFDYWGQGTQVTVSS”, the “polyreactivity (PSR sort gate)” value is reported as “high polyreactivity”.
For “QDQLVESGGALVQAGGSLRLSCAASGSIFDYNAMGWYRQAPRKDRELVAAISVNGGNTYYADSVKGRFTISRDNAKNTVYLQMNRLKPEDTGVSYCAADSYGGSNYDFWGQGTQVTVSS”, the “polyreactivity (PSR sort gate)” value was “low polyreactivity”.
In the case of “QDQLVESGGCLVQAGGSLRLSCAASRFTFSPYTMGWYRQAPGKERELVATIRYDGTSTYYADSVKGRFTISRDNAKNTVYLQMNSLKPEDTAVYYCNADPGYYDYDYWGEGTQVTVSS”, the “polyreactivity (PSR sort gate)” value is reported as “low polyreactivity”.
For “QDQLVESGGGIVQAGGSLRLICAASGRIFLRNDMGWYRQAPGKQRELVAGISSDGSTYYADSVKGRFTISRDNAKNTVYLQMNSLKPEDTAVYYCADERWGNPTDYQFWRQYDYWGQGTQVTVSS”, the “polyreactivity (PSR sort gate)” value was “low polyreactivity”.
For “QDQLVESGGGIVQAGGSLRLSCAASGRTFTAYAMGWYRQAPGKERELVAAISSSGGSTYYADSEKGRFTISRDNAKNTVYLQMNSLKPDDTAVYYCAALGGYRYGYDYWGQGTQVTVSS”, the “polyreactivity (PSR sort gate)” value was “high polyreactivity”.
For “QDQLVESGGGLDQAGGSLRLSCAASGGTFKVNAMGWYRQAPGKEREFVAAISSGGSTYYADSVKGRFTISRDNAKNTVYLQINSLKPEDTAVYYFAASGAYDEAYGEAFYYWGQGTQVIVSS”, the “polyreactivity (PSR sort gate)” value was “low polyreactivity”.
For “QDQLVESGGGLLQAGGSLRLSCAASGFTFSIYAMGWYRQAPGKERELVAAISSSSSTNYADSVKVRFTISRDNAKNTVYLQMNSLKPEDTEVYYCNADNVGNTFTWYDYWGQGTQVTVSS”, the “polyreactivity (PSR sort gate)” value was “low polyreactivity”.
In the case of “QDQLVESGGGLLQAGGSLRLSCAASGIIFYPYAMGWYRQAPGKERELVAAITTRGRTYYADSVKGRFTISRDNAKNTVYLQLNSLKPEDTAVYYCNARRYFSRDSSGYNYWGQGTQVTVSS”, the “polyreactivity (PSR sort gate)” value is reported as “high polyreactivity”.
In the case of “QDQLVESGGGLRQAGGSLRLSCAASGPTFFVYAMGWYTQAPGKERELVAAISWNGGSTFYADSVKGRFTISRDNAKNTVYIQMNSLNPEDTAVYYCAAVESRGWGGYGYWGQGTQVTVSS”, the “polyreactivity (PSR sort gate)” value is reported as “high polyreactivity”.
For “QDQLVESGGGLVHAGCSLRLSCAASGRTFYGNAMGWYRQAPGKERELVAGITRGGSTYYADSVKGRFTISRDNAKNNVYLQMNSLKPEDTAVYYCAATRYYSWGSRGGYWGQGTQVSVSS”, the “polyreactivity (PSR sort gate)” value was “high polyreactivity”.
With “QDQLVESGGGLVHAGGSLRLSCAASGSTFQYYVMGWYRQAPGKERELVAAITWSGGSTYYADSVKGRFTISRDNAKNTVYLQMNSLKPEDTAVYYCKAASGPDFEYEYWGEGTQVTVSS” the “polyreactivity (PSR sort gate)” value was “low polyreactivity”.
With “QDQLVESGGGLVHAGGSLRLSCVPPDSSSLSMLWDGIDRRLGKKGSWLPELTSRGVGTYYADSVKGRFTISRDNAKNPVYLQMNSLKPEDTAVYYCNARYEVFYRYDYWGQGTQVTVSS” the “polyreactivity (PSR sort gate)” value was “low polyreactivity”.
With “QDQLVESGGGLVLSGGRLRLSCAASGSNFSFYAMGWYRQAPGKERELVAGIRWRGGTSTFYADSVKWRFTISRDNAKNTVYLQMNSLKPEDTAVYYCAAKRRTGGNGYWGQGTQVTVSS” the “polyreactivity (PSR sort gate)” value was “high polyreactivity”.
For “QDQLVESGGGLVQAGASLRLSCAASGFIFSYYAMGWYRQAPGKERELVAAITWSGSSTYYADSVKGRFTISRDNAKNTVYLQMNSLKPEDTAVYYCPASSGGFRHYYYTYNYWGQGTQVTVSS”, the “polyreactivity (PSR sort gate)” value was “high polyreactivity”.
With “QDQLVESGGGLVQAGCSLRLSCAASGLIFGWYAMGWYRQAPGKERELVASISRSGGSTYYADSVKGRFTISRDNAKNTVYLQMNSLITEDTAVYYCAALNYVFRLTYGYDYWGQGTQVTVSS” the “polyreactivity (PSR sort gate)” value was “high polyreactivity”.
With “QDQLVESGGGLVQAGCSLRLSCAASGRTFTYYAMGWYRQAPGKERELVAALSKRGGTTYYADSVKVRFSMSRDNAKNTDYLKMNSLKAVDTAVYYCATEGNLRTAGYAYDHYYWGQGTQVTVSS” the “polyreactivity (PSR sort gate)” value was “high polyreactivity”.
For “QDQLVESGGGLVQAGCSLRLTCAASGSTFSYYAMGWYRQAPGKERELVADISWSGGSTYYADSVKGRFTISRDNAKNTVYLQMNSLKAAHTAVYYCAARGGSVLRYGKYYYWGQGTQVTVSS”, the “polyreactivity (PSR sort gate)” value was “low polyreactivity”.
In the case of “QDQLVESGGGLVQAGDSLRLSCAASGIILLSYAMGWYRQAPGKERELVAAITSGGGTNYADSVKGRFTISRDNAKNTVYLQMNSLKPEDTAVYYCAVGAYAGLYYYWGQGTQVTVSS”, the “polyreactivity (PSR sort gate)” value is reported as “low polyreactivity”.
In the case of “QDQLVESGGGLVQAGGIHRLICDSSGFIFWDNAMGCSRQAPGKEREFVAAISQRCTRTYYADSVKGRFTISRDNAKKTVFFPLNSLKPEDTGVYYCNRGGWRQFDSWGQGTQVTVSS”, the “polyreactivity (PSR sort gate)” value is reported as “high polyreactivity”.
In the case of “QDQLVESGGGLVQAGGILRLSCAASGRTFLPNAMGWYRQSPGKEREFVASINGDGTTYYADSVKGRFTISRDNAKNTVYLQMNSLKPEDTAVYYCAKDRDFSSPPTESGFDFWGQGTQVTVSS”, the “polyreactivity (PSR sort gate)” value is reported as “low polyreactivity”.
